These results are taken from US20250019435A1 (ALBERT EINSTEIN COLLEGE OF MEDICINE, published 2025).

Experiment [1] concerns the target T1, PVR expressed on transduced cells (PVR-YFP) (UniProt P15151 21-417).
T1 construct: whole, on cells; On NIH 3T3 or Raji cells; also called PVR/3T3; PVR-YFP/3T3; not shown: YFP ('PVR-YFP ... fusion protein')
T1 sequence (looked up): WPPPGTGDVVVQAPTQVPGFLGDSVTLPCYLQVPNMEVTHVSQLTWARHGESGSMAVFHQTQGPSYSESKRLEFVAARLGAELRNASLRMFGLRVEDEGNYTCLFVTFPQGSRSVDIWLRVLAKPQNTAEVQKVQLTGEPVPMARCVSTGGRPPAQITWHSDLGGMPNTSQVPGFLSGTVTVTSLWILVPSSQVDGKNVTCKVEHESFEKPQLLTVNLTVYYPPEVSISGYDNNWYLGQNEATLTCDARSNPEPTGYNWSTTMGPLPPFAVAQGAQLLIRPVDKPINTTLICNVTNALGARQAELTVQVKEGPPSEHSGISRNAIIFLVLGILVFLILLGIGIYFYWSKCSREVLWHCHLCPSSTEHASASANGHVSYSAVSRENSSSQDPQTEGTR
As to the kind of experiment: flow cytometry, PVR/3T3 cells preincubated with DNAM-1-His, then KIR2DL5-Ig. For orientation: A flow cytometer gives signals particle by particle.

For another experiment, the target named is SHP-1 (human, UniProt P29350 1-595). As to the kind of experiment: co-immunoprecipitation with anti-KIR2DL5 from transduced primary NK cells with or without pervanadate, immunoblot. The protocol: (§1) FIG. 12A-12E: KIR2DL5 ITIM and ITSM mediated NK cell inhibition and suppressed downstream signaling. (A) Tyrosine (Y) in ITIM and ITSM of KIR2DL5 was mutated to phenylalanine (F). The KIR2DL5⁻ primary NK cells were transduced with WT KIR2DL5 or the indicated mutants, and then examined for protein expression with F8B30 (open) or mIgG1 (shaded). NC, negative control. Data are representative of 2 independent experiments. (B and C) Transduced primary NK cells were treated with (+) or without (−) pervanadate (VO₄) for 5 minutes. Cell lysates were immunoprecipitated with anti-KIR2DL5 antibodies. Phospho-tyrosine (4G10), SHP-1, SHP-2, and total KIR2DL5 were detected by immunoblots (B). Quantification of p-Tyr, SHP-1, and SHP-2 association with WT or mutant KIR2DL5 in VO₄-treated NK cells (C). WCL, whole-cell lysates. (D) Representative imaging of cell conjugates acquired upon the indicated transduced primary NK and PVR/Raji cell contact followed by staining with anti-KIR2DL5 mAb and DAPI. Scale bars: […]. (E) Lysis of scramble control or PVR^KO A427 (top) and Jurkat (bottom) by WT or mutant KIR2DL5-transduced primary NK cells at the indicated E/T ratios. Data are mean for duplicate measurements and representative of 3 independent experiments with 3 different donors. In A, and B, data are representative of 3 independent experiments. *P<0.05, **P<0.01, ***P<0.001, ****P<0.0001, by 1-way ANOVA (C), or paired Student's t test (D).
(§2) Coimmunoprecipitation and immunoblotting. NK92 cells or primary NK cells pretreated with or without 1 mM pervanadate (New England BioLabs) were lysed in Pierce immunoprecipitation lysis buffer supplemented with protease and phosphatase inhibitor cocktail (Thermo Fisher Scientific). Proteins from whole-cell lysis were further incubated with anti-KIR2DL5 antibodies and Dynabeads protein G (Thermo Fisher Scientific) for further immunoprecipitation. […]

A further experiment has as its target T2, SHP-2 (human, UniProt Q06124 2-593).
T2 sequence (looked up): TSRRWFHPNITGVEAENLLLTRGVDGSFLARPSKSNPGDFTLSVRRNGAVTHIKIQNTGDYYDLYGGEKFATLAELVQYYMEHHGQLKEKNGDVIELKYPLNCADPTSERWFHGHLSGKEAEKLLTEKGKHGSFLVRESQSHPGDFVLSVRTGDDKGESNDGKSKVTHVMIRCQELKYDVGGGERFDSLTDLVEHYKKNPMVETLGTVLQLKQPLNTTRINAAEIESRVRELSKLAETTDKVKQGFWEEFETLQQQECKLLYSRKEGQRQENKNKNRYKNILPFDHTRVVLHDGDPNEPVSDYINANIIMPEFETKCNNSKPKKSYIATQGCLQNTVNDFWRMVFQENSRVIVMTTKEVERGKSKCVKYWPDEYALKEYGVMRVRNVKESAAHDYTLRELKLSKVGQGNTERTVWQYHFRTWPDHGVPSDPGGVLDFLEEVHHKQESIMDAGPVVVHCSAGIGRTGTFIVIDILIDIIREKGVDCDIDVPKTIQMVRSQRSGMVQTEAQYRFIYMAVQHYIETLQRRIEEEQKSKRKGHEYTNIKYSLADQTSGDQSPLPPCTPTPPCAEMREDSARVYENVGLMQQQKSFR
The experiment is described as above. The protocol:
as §1, §2

The target in experiment [2] is T1, PVR expressed on transduced cells …. As to the kind of experiment: confocal imaging of conjugates of transduced primary NK cells with PVR-YFP/Raji cells. The protocol:
as §1, with “The” for “FIG. 12A-12E: KIR2DL5 ITIM and ITSM mediated NK cell inhibition and suppressed downstream signaling. (A) Tyrosine (Y) in ITIM and ITSM of KIR2DL5 was mutated to phenylalanine (F). The”
NK-Raji conjugation assay. […] Cell mixtures were then loaded onto poly-L-lysine-precoated slides and fixed with 4% formaldehyde at RT for 15 minutes. After blocking with 5% normal goat serum at RT for 1 hour, cells were stained with 20 µg/mL anti-KIR2DL5 antibodies (a mixture of 8 homemade clones) at 4° C. overnight and then with goat anti-mIgG (H+L) Alexa Flour 647 (Invitrogen) at RT for 2 hours. The cells were permeabilized by 0.1% Triton X-100 at RT for 15 minutes and stained with Alexa Flour Plus 405 Phalloidin (Life Technologies) for 1 hour at RT. The slides were then mounted by Gold Antifade Mountant without DAPI (Life Technologies). The mean pixel intensity of synapse and non-synapse was respectively measured and statistically analyzed. Images were acquired by Leica SP8 confocal microscope and processed by ImageJ (NIH).

SHP-1, sequence (P29350 whole entry): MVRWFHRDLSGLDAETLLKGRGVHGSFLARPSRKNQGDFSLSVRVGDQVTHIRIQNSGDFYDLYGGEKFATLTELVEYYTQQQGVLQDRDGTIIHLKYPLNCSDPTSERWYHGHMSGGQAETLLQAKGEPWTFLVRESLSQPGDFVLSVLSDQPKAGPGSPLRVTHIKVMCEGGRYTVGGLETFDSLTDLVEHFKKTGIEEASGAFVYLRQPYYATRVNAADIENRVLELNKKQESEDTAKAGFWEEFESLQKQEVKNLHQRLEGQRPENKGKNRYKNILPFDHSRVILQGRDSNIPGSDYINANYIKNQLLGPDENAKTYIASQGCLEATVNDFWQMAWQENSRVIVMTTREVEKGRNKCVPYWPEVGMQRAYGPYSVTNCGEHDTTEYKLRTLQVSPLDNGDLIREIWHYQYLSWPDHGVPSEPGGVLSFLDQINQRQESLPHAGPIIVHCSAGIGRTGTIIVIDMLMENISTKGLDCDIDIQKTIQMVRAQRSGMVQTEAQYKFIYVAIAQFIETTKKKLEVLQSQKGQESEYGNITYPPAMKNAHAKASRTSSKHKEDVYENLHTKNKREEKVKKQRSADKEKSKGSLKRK

B1: recombinant human DNAM-1-His tag protein (receptor, UniProt Q15762 19-247, looked up)
chain: EEVLWHTSVPFAENMSLECVYPSMGILTQVEWFKIGTQQDSIAIFSPTHGMVIRKPYAERVYFLNSTMASNNMTLFFRNASEDDVGYYSCSLYTYPQGTWQKVIQVVQSDSFEAAVPSNSHIVSEPGKNVTLTCQPQMTWPVQAVRWEKIQPRQIDLLTYCNLVHGRNFTSKFPRQIVSNCSHGRWSVIVIPDVTVSDSGLYRCYLQASAGENETFVMRLTVAEGKTDN
notes: Bought; also called CD226-His; not shown: His tag
With B1, the binding result in experiment [1] is given as “binds”.

B2: Y298F/Y328F (receptor)
receptor chain: HEGGQDKPLLSAWPSAVVPRGGHVTLLCRSRLGFTIFSLYKEDGVPVPELYNKIFWKSILMGPVTPAHAGTYRCRGSHPRSPIEWSAPSNPLVIVVTGLFGKPSLSAQPGPTVRTGENVTLSCSSRSSFDMYHLSREGRAHEPRLPAVPSVNGTFQADFPLGPATHGGTYTCFGSLHDSPYEWSDPSDPLLVSVTGNSSSSSSSPTEPSSKTGIRRHLHILIGTSVAIILFIILFFFLLHCCCSNKKNAAVMDQEPAGDRTVNREDSDDQDPQEVTFAQLDHCVFTQTKITSPSQRPKTPPTDTTMFMELPNAKPRSLSPAHKHHSQALRGSSRETTALSQNRVASSHVPAAGI
notes: also called KIR2DL5 Y298F/Y328F (ITIM and ITSM mutant) on transduced primary NK cells
Take B2: the binding result with SHP-1 is recorded as “no binding”; in the experiment with SHP-2 it was “no binding”; in experiment [2], “binds”.
